Data as given in patent US20210395718A1, “NOVEL KETOSE 3-EPIMERASE” (NATIONAL UNIVERSITY CORPORATION KAGAWA UNIVERSITY, priority 2018, published 2021).
Numbering of substitutions follows the chain as printed.

B1: Ketose 3-epimerase mutant 18: amino acid-substituted mutant of SEQ ID NO: 1 (protein)
chain: MKIGCHGLVWTGRFDAEGIRYSVQKTKEAGFDLIEFPLMDPFSFDVATAKSALAEHGLTASASLGLSEATDVSSEDPAIVKAGEELLNRALDVLAELGATEFCGVIYSAMKKYMEPATEQGLSNSKAAVGRVVDRAAGLGINVSLEVVNRYETNVLNTGRQALSYLSDVKRPNLGVHLDTYHMNIEESDMFSPVLDTAEALKYVHIGESHRGYLGTGSVDFDNFFKALGRIGYDGPVVFESFSSAVVAPDLSRMLGIWRNLWADNEELGAHANAFIRDKLTAIKTIELH
modifications: Arthrobacter histidinolovorans
B2: Ketose 3-epimerase mutant 31: amino acid-substituted mutant of SEQ ID NO: 1 (protein)
chain: B1 chain with E101D, E199D
modifications: Arthrobacter histidinolovorans
B3: Ketose 3-epimerase mutant 36: amino acid-substituted mutant of SEQ ID NO: 1 (protein)
chain: B1 chain with L94V, E101D
modifications: Arthrobacter histidinolovorans
B4: Ketose 3-epimerase mutant 32: amino acid-substituted mutant of SEQ ID NO: 1 (protein)
chain: B1 chain with P77S, E101D
modifications: Arthrobacter histidinolovorans
B5: Ketose 3-epimerase mutant 25: amino acid-substituted mutant of SEQ ID NO: 1 (protein)
chain: B1 chain with E101D, K202R
modifications: Arthrobacter histidinolovorans
B6: Ketose 3-epimerase mutant 34: amino acid-substituted mutant of SEQ ID NO: 1 (protein)
chain: B1 chain with E101D, A128V
modifications: Arthrobacter histidinolovorans
B7: Ketose 3-epimerase mutant 33: amino acid-substituted mutant of SEQ ID NO: 1 (protein)
chain: B1 chain with T59S, A60V, A200V, S218N
modifications: Arthrobacter histidinolovorans
B8: Ketose 3-epimerase mutant 1: amino acid-substituted mutant of SEQ ID NO: 1 (protein)
chain: B1 chain with T59S, A60V, V129I, A200V, S218N
modifications: Arthrobacter histidinolovorans
B9: Ketose 3-epimerase mutant 19: amino acid-substituted mutant of SEQ ID NO: 1 (protein)
chain: B1 chain with T59S, A60V, E101D, V129I, A200V, S218N
modifications: Arthrobacter histidinolovorans
B10: Ketose 3-epimerase mutant 37: amino acid-substituted mutant of SEQ ID NO: 1 (protein)
chain: B1 chain with E101D, A109S
modifications: Arthrobacter histidinolovorans
B11: Ketose 3-epimerase mutant 35: amino acid-substituted mutant of SEQ ID NO: 1 (protein)
chain: B1 chain with E101D, V132I
modifications: Arthrobacter histidinolovorans
B12: Ketose 3-epimerase mutant 29: amino acid-substituted mutant of SEQ ID NO: 1 (protein)
chain: B1 chain with H56Y, E101D
modifications: Arthrobacter histidinolovorans
B13: Ketose 3-epimerase mutant 2: amino acid-substituted mutant of SEQ ID NO: 1 (protein)
chain: B1 chain with E101D, A200V, S218N
modifications: Arthrobacter histidinolovorans
B14: Ketose 3-epimerase mutant 23: amino acid-substituted mutant of SEQ ID NO: 1 (protein)
chain: B1 chain with E101D, P172G
modifications: Arthrobacter histidinolovorans
B15: Ketose 3-epimerase mutant 28: amino acid-substituted mutant of SEQ ID NO: 1 (protein)
chain: B1 chain with V129I, A200V, S218N
modifications: Arthrobacter histidinolovorans
B16: Ketose 3-epimerase mutant 26: amino acid-substituted mutant of SEQ ID NO: 1 (protein)
chain: B1 chain with L97M, E101D
modifications: Arthrobacter histidinolovorans
B17: Ketose 3-epimerase mutant 21: amino acid-substituted mutant of SEQ ID NO: 1 (protein)
chain: B1 chain with T59S, A60V
modifications: Arthrobacter histidinolovorans
B18: Ketose 3-epimerase mutant 20: amino acid-substituted mutant of SEQ ID NO: 1 (protein)
chain: B1 chain with T59S, A60V, E101D, V129I
modifications: Arthrobacter histidinolovorans
B19: Ketose 3-epimerase mutant 30: amino acid-substituted mutant of SEQ ID NO: 1 (protein)
chain: B1 chain with E101D, S144A
modifications: Arthrobacter histidinolovorans
B20: Ketose 3-epimerase mutant 24: amino acid-substituted mutant of SEQ ID NO: 1 (protein)
chain: B1 chain with E101D, S167Q
modifications: Arthrobacter histidinolovorans
B21: Ketose 3-epimerase mutant 22: amino acid-substituted mutant of SEQ ID NO: 1 (protein)
chain: B1 chain with T59S, A60V, P77S, L94V, A109S, V129I, S144A, S167Q, A200V, S218N
modifications: Arthrobacter histidinolovorans
B22: Ketose 3-epimerase mutant 27: amino acid-substituted mutant of SEQ ID NO: 1 (protein)
chain: B1 chain with V129I
modifications: Arthrobacter histidinolovorans

assay: Thermal stability: residual activity after incubation at 60° C. for one hour; type: biochemical; conditions: crude recombinant enzyme; after incubation at 60° C. for 1 hour
Protocol: Thermal stability of the enzyme was investigated by measuring the activity of the enzyme after incubation at 60° C. for one hour and finding its relative activity supposing that the activity at 60° C. under the reaction conditions (10 minutes) used for determining the optimum temperature in the above 2 shown in Table 2 was 100. As heat treatment conditions, the crude enzyme solution, a buffer (50 mM tris-HCl, pH 7.5), and 2 mM MgCl2 were used to give a total amount of 200 p1 and after retaining at 60° C. for one hour, the reaction mixture was cooled for 10 minutes in ice water. The residual enzyme activity was then measured by the conventional method.
The activity of each of the present enzyme (crude recombinant enzyme) and the crude enzyme of the control enzyme after incubation at 60° C. for 1 hour was measured and a relative activity of it was determined supposing that the activity at 60° C. under the reaction conditions (10 minutes) for determining the optimum temperature in the above 2 shown in Table 2 is 100. The relative activity was used as a heat resistance index of the enzyme. As heat treatment conditions, the crude enzyme solution, a buffer (50 mM tris-HCl, pH 7.5), and 2 mM MgCl2 were used to give a total amount of 200 p1 and after retaining at 60° C. for one hour, the reaction mixture was cooled for 10 minutes in ice water. The residual enzyme activity was measured by the conventional method.

Molecule | Residual activity (%)
B1 | 72.1
B2 | 58.1
B3 | 57.0
B4 | 39.9
B5 | 51.4
B6 | 57.2
B7 | 91.0
B8 | 74.1
B9 | 91.2
B10 | 63.3
B11 | 69.2
B12 | 56.8
B13 | 83.3
B14 | 65.8
B15 | 112.7
B16 | 68.9
B17 | 59.4
B18 | 52.1
B19 | 66.9
B20 | 55.4
B21 | 113.5
B22 | 61.9

assay: Ketose 3-epimerase activity ratio (T70/T50) at reaction temperature of 70° C. to 50° C.; type: biochemical; conditions: crude recombinant enzyme; ratio of activity at 70° C. to activity at 50° C., 10 min reaction
Protocol: An enzyme having higher heat resistance than an amino acid substitution-free wild type enzyme can be obtained by introducing mutation into the gene of the ketose 3-epimerase of the present invention and substituting the corresponding amino acid residue with another amino acid residue by a site-directed mutagenesis operation to prepare various amino acid-substituted mutants. The heat resistance is evaluated by two indices, that is, a ketose 3-epimerase activity ratio (T70/T50) at the reaction temperatures of 70° C. to 50° C. and a residual activity after incubation at 60° C. for one hour.
Heat resistance of the present enzyme (crude recombinant enzyme) and the crude enzyme of the control enzyme was investigated by measuring an activity at 70° C. and an activity at 50° C. under the reaction conditions (10 minutes) used for determining the optimum temperature in the above 2 shown in Table 2 and finding their ratio (T70/T50).

Molecule | T70/T50
B1 | 1.85
B2 | 1.54
B3 | 1.30
B4 | 1.53
B5 | 1.66
B6 | 1.38
B7 | 1.46
B8 | 2.37
B9 | 1.85
B10 | 1.07
B11 | 1.34
B12 | 1.58
B13 | 2.31
B14 | 1.69
B15 | 1.62
B16 | 1.65
B17 | 1.70
B18 | 1.79
B19 | 1.57
B20 | 1.68
B21 | 1.70
B22 | 1.64
